Entries after “also recorded” stand apart in the source; their conditions may differ. Peptide text beside a SMILES is read from it. * marks the point of attachment. Boc = CC(C)(C)OC(=O)*; CH2Cl = ClC*
Assays:
[1] = biological target: fluorogenic peptide substrate DABCYL-Arg-Gly-Val-Val-Asn-Ala-Ser-Ser-Arg-Leu-Ala-EDANS (HCMV)
[2] = test system: KSHV-infected B-cell line, BCBL-1; test: Northern blot of KSHV AP and Pr/AP transcripts in BCBL-1 cells; assay type: cell-based; design: production of 0.95 kb AP transcript / production of 0.95 kb and 2.3 kb transcripts: dose or concentration left out as unconfirmed
From the text: The KSHV-infected B-cell line, BCBL-1, was employed for transcription of the KSHV Pr/AP and AP genes during lytic infection. This cell line harbors the viral genome in latent form, and treatment of these cells with TPA induces lytic replication (Renne, et al., 1996). Equivalent amounts of poly(A)-enriched RNA from uninduced or induced BCBL-1 cells in the presence or absence of phosphoroformic acid (PFA), an inhibitor of herpesviral DNA replication, were separated on a formaldehyde/agarose gel, transferred to a membrane, and hybridized to a probe derived from the 1.5 kb fragment containing the Pr/AP ORF of KSHV, as detailed in Example 6.
BCBL-1 cells (Renne, et al., 1996) were treated with phosphoroformic acid (PFA) at a concentration of 500 mM for at least 3 days prior to induction. Untreated and PFA treated cells were then split into identical flasks, at 3×10^5 cells/ml, and left unstimulated or induced with 12-O-tetradecanoyl phorbol-13-acetate (TPA) at a concentration of 20 ng/ml. After 48 hours, total RNA was harvested using RNAzol B as recommended by the manufacturer (Tel-Test, Friendwood, Tex.). To enrich the polyadenylated RNA fraction, 300 μg RNA samples, uninduced and induced with TPA, and with and without PFA treatment, were affinity purified using the Oligotex mRNA purification system (Qiagen, Chatsworth, Calif.). RNA was separated on a 1% agarose, 17% formaldehyde gel, transferred to Hybond-N nylon membrane in 10× SSC for 5 hours, and UV-crosslinked. The 1.5 kb insert from pBS1.5 was gel purified and labelled using the rediPrime Random Prime kit (Amersham Corporation, Arlington Heights, Ill.). Hybridization was performed as according to standard methods (Renne, et al., 1996), and the blot was exposed to Kodak XAR5 film for 8 hours.

[3] = biological target: fluorogenic peptide substrate DABCYL-Arg-Gly-Val-Val-Asn-Ala-Ser-Ser-Arg-Leu-Ala-EDANS (HCMV); remark: listed apart in the source
[4] = test system: HCMV M-site peptide substrate DABCYL-[…]-EDANS; test: Continuous fluorometric assay of cleavage of fluorogenic peptide substrate; assay type: biochemical; conditions: for increase in fluorescence intensity (F/Fo) from peptide hydrolysis: 1.5 μM enzyme, 10 μM substrate, pH 5.5, 37° C., by five hours; for proteolytic activity relative to KSHV Pr: assayed according to the method of Example 5; for rate of hydrolysis of HCMV substrate relative to 1.5 μM wild-type KSHV Pr: 1 μM trypsin D102N or 1 nM trypsin vs 1.5 μM KSHV Pr, one-hour time course
Procedure: Such activities can be determined by comparing the activity of a KSHV PR, as defined herein, to that of the KSHV Pr having the sequence SEQ ID NO:7. For example, in experiments carried out in support of the present invention, recombinantly produced His6 -KSHV Pr and variant His6 -KSHV Pr(S114A) proteins were tested for ability to cleave a synthetic peptide substrate. The substrate, containing the HCMV M-site peptide sequence RGVVNASSRLA (SEQ ID NO:15) flanked by a fluorogenic donor-acceptor pair, allows for continuous monitoring of peptide hydrolysis due to fluorescence enhancement arising from donor-acceptor separation (Holskin, et al., 1995). This substrate contains an internal Arg residue, allowing for cleavage by trypsin, an extremely well-characterized serine protease.
Protease assays using the fluorogenic peptide substrate DABCYL-Arg-Gly-Val-Val-Asn-Ala-Ser-Ser-Arg-Leu-Ala-EDANS, where RGVVNASSRLA (SEQ ID NO:15) was obtained from BACHEM (King of Prussia, Pa.), were monitored optically by a Perkin-Elmer LS-5B luminescence spectrophotometer interfaced with a Macintosh SE-30 computer. DABCYL represents 4-(4'-Dimethylaminophenylazo)benzoic acid, and EDANS signifies (2'-aminoethylamino)-naphthalene-1-sulfonic acid. His6 -Pr and His6 -Pr(S114A) were diluted 10-fold from storage buffer into assay buffer (50 mM NaOAc (pH 5.5), 20% (v/v) glycerol, 0.1 mM EDTA, 0.1 mM DTT), equilibrated to 37° C. for 5 minutes in thermostatted quartz cuvettes, and manually mixed with a final substrate concentration of 10 μM. A pH 5.5 buffer was utilized due to slightly higher proteolytic activity than that observed in pH 7.5 Tris-based solutions. The final KSHV Pr concentrations were 1.5 μM. Time-evolved fluorescence enhancement was followed by exciting the samples at 355 nm and detecting emission at 495 nm. Trypsin and its D102N variant (Craik, et al., 1987) were diluted into the same assay buffer to final concentrations of 1 nM and 1 μM, respectively, and treated identically to the KSHV enzymes. The ratio of fluorescence at each time point (F) was then compared with the initial fluorescence output (FO) to generate plots of F/FO vs. time.

[5] = biological target: T1, KSHV protease Pr(S204G), an autolytically stable variant (Human herpesvirus 8 strain GK18, UniProt Q2HRB6, S204G); test: Fluorometric enzyme assay, inhibition of KSHV protease; assay type: biochemical, Kaposi's Sarcoma Herpesvirus (KSHV); conditions: 0.5 μM enzyme Pr(S204G), 300 μM inhibitor, 15 min pre-incubation, 20 μM fluorogenic substrate
T1 construct: S204G, untagged, recombinant in E. coli; source DNA from pulmonary KS tumor clone
T1 sequence (Q2HRB6 1-230 A226V): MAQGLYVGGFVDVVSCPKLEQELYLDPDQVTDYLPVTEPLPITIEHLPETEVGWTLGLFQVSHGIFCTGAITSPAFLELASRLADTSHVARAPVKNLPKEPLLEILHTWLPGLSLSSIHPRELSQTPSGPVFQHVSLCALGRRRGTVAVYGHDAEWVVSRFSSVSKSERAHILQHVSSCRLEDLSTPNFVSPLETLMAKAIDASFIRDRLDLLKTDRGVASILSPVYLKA

**Q.** Which fluorescence enhancement (F/Fo) from hydrolysis of the fluorogenic peptide (fold faster than KSHV Pr) [1] does the source give for “trypsin D102N (from UniProt P00763) (enzyme)” here?
**A.** 2

**Q.** What does the source list for `O=C(O)P(=O)(O)O` [PFA, phosphoroformic acid]?
**A.** production of 0.95 kb and 2.3 kb transcripts ([2]; TPA-induced BCBL-1 cells): strongly inhibited; production of 0.95 kb AP transcript ([2]; uninduced BCBL-1 cells): strongly inhibited

**Q.** Which “production of 0.95 kb AP transcript upon lytic induction” value ([2]; BCBL-1 cells, TPA 20 ng/ml, 48 hours) does the source give for `CCCCCCCCCCCCCC(=O)O[C@@H]1[C@@H](C)[C@@]2(O)[C@@H](C=C(CO)C[C@]3(O)C(=O)C(C)=C[C@@H]23)[C@@H]2C(C)(C)[C@]12OC(C)=O` [TPA, 12-O-tetradecanoyl phorbol-13-acetate] here?
**A.** strongly upregulated

**Q.** Which fluorescence enhancement (F/Fo) from hydrolysis of the fluorogenic peptide (fold increase in fluorescence intensity) [3] does the source give for KSHV His6-Pr (enzyme) here?
**A.** 3

**Q.** For “KSHV Pr: recombinant KSHV protease (SEQ ID NO:7) with amino-terminal His6 tag, expressed in E. coli”, which “increase in fluorescence intensity (F/Fo) from peptide hydrolysis” value [4] is on record?
**A.** nearly three-fold increase

**Q.** With `CC(C)C[C@H](NC(=O)[C@H](Cc1ccc(O)cc1)NC(=O)OC(C)(C)C)C(=O)N[C@@H](CCCCN)C(=O)N[C@@H](C)C(=O)CCl` [Boc-YLKA-COCH2 Cl] (Boc-YLKA-CH2Cl) as the molecule, how does the “inhibition of protease activity” value [5] read?
**A.** Complete inhibition

B1: S114A variant: KSHV protease variant in which the active-site Ser-114 was converted to Ala (protein)
chain (part 1 of 2): MRGS
chain (part 2 of 2): GSAQGLYVGGFVDVVSCPKLEQELYLDPDQVTDYLPVTEPLPITIEHLPETEVGWTLGLFQVSHGIFCTGAITSPAFLELASRLADTSHVARAPVKNLPKEPLLEILHTWLPGLALSSIHPRELSQTPSGPVFQHVSLCALGRRRGTVAVYGHDAEWVVSRFSSVSKSERAHILQHVSSCRLEDLSTPNFVSPLETLMAKAIDASFIRDRLDLLKTDRGVASILSPVYLKA
**Q.** Which “increase in fluorescence intensity (F/Fo) from peptide hydrolysis” value [4] does the source give for B1 here?
**A.** minimal enhancement

**Q.** And the “proteolytic activity relative to KSHV Pr” value [4]?
**A.** 1/10

B2: trypsin D102N: trypsin in which the active site Asp residue has been replaced with Asn (protein)
chain: IVGGYTCQENSVPYQVSLNSGYHFCGGSLINDQWVVSAAHCYKSRIQVRLGEHNINVLEGNEQFVNAAKIIKHPNFDRKTLNNDIMLIKLSSPVKLNARVATVALPSSCAPAGTQCLISGWGNTLSSGVNEPDLLQCLDAPLLPQADCEASYPGKITDNMVCVGFLEGGKDSCQGDSGGPVVCNGELQGIVSWGYGCALPDNPGVYTKVCNYVDWIQDTIAAN
**Q.** With B2 as the molecule, how does the “rate of hydrolysis of HCMV substrate relative to 1.5 μM wild-type KSHV Pr” value [4] read?
**A.** 2 fold

**Q.** What about the “catalytic efficiency relative to trypsin” value ([4]; under the conditions used herein) of the same molecule?
**A.** roughly 5000 fold

B3: trypsin: extremely well-characterized serine protease used for comparison (protein)
chain: IVGGYTCQENSVPYQVSLNSGYHFCGGSLINDQWVVSAAHCYKSRIQVRLGEHNINVLEGNEQFVNAAKIIKHPNFDRKTLNNDIMLIKLSSPVKLNARVATVALPSSCAPAGTQCLISGWGNTLSSGVNEPDLLQCLDAPLLPQADCEASYPGKITDNMVCVGFLEGGKDSCQGDSGGPVVCNGELQGIVSWGYGCALPDNPGVYTKVCNYVDWIQDTIAAN
**Q.** How did the “rate of hydrolysis of HCMV substrate relative to 1.5 μM wild-type KSHV Pr” value [4] turn out when B3 was run?
**A.** substantially more active than the KSHV enzyme

B4: Pr(S204G): KSHV protease variant engineered to stabilize the enzyme against autoproteolysis, expressed without His6 tag (protein)
chain: MAQGLYVGGFVDVVSCPKLEQELYLDPDQVTDYLPVTEPLPITIEHLPETEVGWTLGLFQVSHGIFCTGAITSPAFLELASRLADTSHVARAPVKNLPKEPLLEILHTWLPGLSLSSIHPRELSQTPSGPVFQHVSLCALGRRRGTVAVYGHDAEWVVSRFSSVSKSERAHILQHVSSCRLEDLSTPNFVSPLETLMAKAIDAGFIRDRLDLLKTDRGVASILSPVYLKA
**Q.** How did the “proteolytic activity relative to KSHV Pr” value [4] turn out when B4 was run?
**A.** essentially the same activity as Pr; also recorded: substantially the same activity as Pr

Source: patent US6033894A, “Kaposi's Syndrome Herpesvirus protease and assembly protein compositions and methods” (The Regents of the University of California, priority 1998, dated 2000)
